Here are results for 15 molecules from US20250186541A1, “DLL3 TARGETING PEPTIDES AND CONSTRUCTS THEREOF” (MARIANA ONCOLOGY INC., priority 2023, published 2025).

T1: Biotinylated human DLL3 (human, UniProt Q9NYJ7 27-492, biotinylated (site not stated))
T1 construct: also called Delta-like ligand 3; Delta Like Canonical Notch Ligand 3
T1 sequence (looked up): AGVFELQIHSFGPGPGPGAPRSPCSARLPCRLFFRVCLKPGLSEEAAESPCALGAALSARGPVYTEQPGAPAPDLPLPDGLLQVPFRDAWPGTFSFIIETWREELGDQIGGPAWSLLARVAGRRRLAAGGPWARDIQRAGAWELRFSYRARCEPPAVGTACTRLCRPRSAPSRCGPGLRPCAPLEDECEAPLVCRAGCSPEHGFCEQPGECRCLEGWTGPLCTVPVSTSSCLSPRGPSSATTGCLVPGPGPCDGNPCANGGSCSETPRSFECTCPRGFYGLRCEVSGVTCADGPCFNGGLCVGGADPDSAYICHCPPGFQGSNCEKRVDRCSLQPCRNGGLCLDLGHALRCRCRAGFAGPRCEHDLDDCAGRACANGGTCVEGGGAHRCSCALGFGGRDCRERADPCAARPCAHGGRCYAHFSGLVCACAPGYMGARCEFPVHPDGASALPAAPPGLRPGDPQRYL

B1: Cpd #31 (peptide)
peptide: Ac-SDCWLQWNCPFD[dK](DOTA)-NH2
modifications: disulfide 3-9
B2: Cpd #48 (peptide)
peptide: Ac-MSDCWLQWNC[Aze]FD[dK](DOTA)-NH2
modifications: disulfide 4-10
B3: Cpd #19 (peptide)
peptide: Ac-ASDCWLQWNCPFD-NH2
modifications: disulfide 4-10
SMILES: CC(=O)N[C@@H](C)C(=O)N[C@@H](CO)C(=O)N[C@@H](CC(=O)O)C(=O)N[C@H]1CSSC[C@@H](C(=O)N2CCC[C@H]2C(=O)N[C@@H](Cc2ccccc2)C(=O)N[C@@H](CC(=O)O)C(N)=O)NC(=O)[C@H](CC(N)=O)NC(=O)[C@H](Cc2c[nH]c3ccccc23)NC(=O)[C@H](CCC(N)=O)NC(=O)[C@H](CC(C)C)NC(=O)[C@H](Cc2c[nH]c3ccccc23)NC1=O
B4: Cpd #24 (peptide)
peptide: Ac-MSDCWLAWNCPFD-NH2
modifications: disulfide 4-10
SMILES: CSCC[C@H](NC(C)=O)C(=O)N[C@@H](CO)C(=O)N[C@@H](CC(=O)O)C(=O)N[C@H]1CSSC[C@@H](C(=O)N2CCC[C@H]2C(=O)N[C@@H](Cc2ccccc2)C(=O)N[C@@H](CC(=O)O)C(N)=O)NC(=O)[C@H](CC(N)=O)NC(=O)[C@H](Cc2c[nH]c3ccccc23)NC(=O)[C@H](C)NC(=O)[C@H](CC(C)C)NC(=O)[C@H](Cc2c[nH]c3ccccc23)NC1=O
B5: Cpd #22 (peptide)
peptide: Ac-MSDCALQWNCPFD-NH2
modifications: disulfide 4-10
SMILES: CSCC[C@H](NC(C)=O)C(=O)N[C@@H](CO)C(=O)N[C@@H](CC(=O)O)C(=O)N[C@H]1CSSC[C@@H](C(=O)N2CCC[C@H]2C(=O)N[C@@H](Cc2ccccc2)C(=O)N[C@@H](CC(=O)O)C(N)=O)NC(=O)[C@H](CC(N)=O)NC(=O)[C@H](Cc2c[nH]c3ccccc23)NC(=O)[C@H](CCC(N)=O)NC(=O)[C@H](CC(C)C)NC(=O)[C@H](C)NC1=O
B6: Cpd #29 (peptide)
peptide: Ac-MSDCWLQWNCPFA-NH2
modifications: disulfide 4-10
SMILES: CSCC[C@H](NC(C)=O)C(=O)N[C@@H](CO)C(=O)N[C@@H](CC(=O)O)C(=O)N[C@H]1CSSC[C@@H](C(=O)N2CCC[C@H]2C(=O)N[C@@H](Cc2ccccc2)C(=O)N[C@@H](C)C(N)=O)NC(=O)[C@H](CC(N)=O)NC(=O)[C@H](Cc2c[nH]c3ccccc23)NC(=O)[C@H](CCC(N)=O)NC(=O)[C@H](CC(C)C)NC(=O)[C@H](Cc2c[nH]c3ccccc23)NC1=O
B7: Cpd #28 (peptide)
peptide: Ac-MSDCWLQWNCPAD-NH2
modifications: disulfide 4-10
SMILES: CSCC[C@H](NC(C)=O)C(=O)N[C@@H](CO)C(=O)N[C@@H](CC(=O)O)C(=O)N[C@H]1CSSC[C@@H](C(=O)N2CCC[C@H]2C(=O)N[C@@H](C)C(=O)N[C@@H](CC(=O)O)C(N)=O)NC(=O)[C@H](CC(N)=O)NC(=O)[C@H](Cc2c[nH]c3ccccc23)NC(=O)[C@H](CCC(N)=O)NC(=O)[C@H](CC(C)C)NC(=O)[C@H](Cc2c[nH]c3ccccc23)NC1=O
B8: Cpd #27 (peptide)
peptide: Ac-MSDCWLQWNCAFD-NH2
modifications: disulfide 4-10
SMILES: CSCC[C@H](NC(C)=O)C(=O)N[C@@H](CO)C(=O)N[C@@H](CC(=O)O)C(=O)N[C@H]1CSSC[C@@H](C(=O)N[C@@H](C)C(=O)N[C@@H](Cc2ccccc2)C(=O)N[C@@H](CC(=O)O)C(N)=O)NC(=O)[C@H](CC(N)=O)NC(=O)[C@H](Cc2c[nH]c3ccccc23)NC(=O)[C@H](CCC(N)=O)NC(=O)[C@H](CC(C)C)NC(=O)[C@H](Cc2c[nH]c3ccccc23)NC1=O
B9: Cpd #21 (peptide)
peptide: Ac-MSACWLQWNCPFD-NH2
modifications: disulfide 4-10
SMILES: CSCC[C@H](NC(C)=O)C(=O)N[C@@H](CO)C(=O)N[C@@H](C)C(=O)N[C@H]1CSSC[C@@H](C(=O)N2CCC[C@H]2C(=O)N[C@@H](Cc2ccccc2)C(=O)N[C@@H](CC(=O)O)C(N)=O)NC(=O)[C@H](CC(N)=O)NC(=O)[C@H](Cc2c[nH]c3ccccc23)NC(=O)[C@H](CCC(N)=O)NC(=O)[C@H](CC(C)C)NC(=O)[C@H](Cc2c[nH]c3ccccc23)NC1=O
B10: Cpd #45 (peptide)
peptide: Ac-MSDCWLQWNC[cisHyp]FD[dK](DOTA)-NH2
modifications: disulfide 4-10
B11: Cpd #41 (peptide)
peptide: {DOTA}-[Ahx]SDCWLQWNCP[hPhe]D-NH2
modifications: disulfide 4-10
SMILES: CC(C)C[C@@H]1NC(=O)[C@H](Cc2c[nH]c3ccccc23)NC(=O)[C@@H](NC(=O)[C@H](CC(=O)O)NC(=O)[C@H](CO)NC(=O)CCCCCNC(=O)CN2CCN(CC(=O)O)CCN(CC(=O)O)CCN(CC(=O)O)CC2)CSSC[C@@H](C(=O)N2CCC[C@H]2C(=O)N[C@@H](CCc2ccccc2)C(=O)N[C@@H](CC(=O)O)C(N)=O)NC(=O)[C@H](CC(N)=O)NC(=O)[C@H](Cc2c[nH]c3ccccc23)NC(=O)[C@H](CCC(N)=O)NC1=O
B12: Cpd #30 (peptide)
peptide: Ac-MSDCWLQWNCPFD[dK](DOTA)-NH2
modifications: disulfide 4-10
B13: Cpd #84 (peptide)
peptide: Ac-[dK]SDCWLQWNCPFD[dK](DOTA)-NH2
modifications: disulfide 4-10
B14: Cpd #83 (peptide)
peptide: Ac-KSDCWLQWNCPFD[dK](DOTA)-NH2
modifications: disulfide 4-10
B15: Cpd #46 (peptide)
peptide: Ac-MSDCWLQWNC[5,5‑diMe‑P]FD[dK](DOTA)-NH2
modifications: disulfide 4-10
SMILES: CSCC[C@H](NC(C)=O)C(=O)N[C@@H](CO)C(=O)N[C@@H](CC(=O)O)C(=O)N[C@H]1CSSC[C@@H](C(=O)N2[C@H](C(=O)N[C@@H](Cc3ccccc3)C(=O)N[C@@H](CC(=O)O)C(=O)N[C@H](CCCCNC(=O)CN3CCN(CC(=O)O)CCN(CC(=O)O)CCN(CC(=O)O)CC3)C(N)=O)CCC2(C)C)NC(=O)[C@H](CC(N)=O)NC(=O)[C@H](Cc2c[nH]c3ccccc23)NC(=O)[C@H](CCC(N)=O)NC(=O)[C@H](CC(C)C)NC(=O)[C@H](Cc2c[nH]c3ccccc23)NC1=O

Numbered stars: 1 amine (or outer) side, 2 acyl side, 3 side chain; on linkers, the order of the positions; unused ones are H or OH. Bridge positions count the residues as written; N and C are the ends. Square brackets hold non-standard residues; d marks the D form. * marks the point of attachment. 5,5‑diMe‑P = 5,5-dimethyl-L-proline, CC1(C)CC[C@@H](C(=O)[*:2])N1[*:1]; DOTA = O=C(O)CN1CCN(CC(=O)O)CCN(CC(=O)*)CCN(CC(=O)O)CC1; cisHyp = O=C(O)[C@@H]1C[C@H](O)CN1; hPhe = N[C@@H](CCc1ccccc1)C(=O)O; Aze = O=C(O)[C@@H]1CCN1; Ahx = NCCCCCC(=O)O

The target in the experiment is T1, Biotinylated human DLL3. Kind of experiment: SPR, biotin-hDLL3 on SA chip.
A word on the Kd: it is a measure of binding affinity in units of concentration. Read a low Kd as higher affinity. With B1, binding was put at a Kd of 25.5 nM.

As to B2, the Kd came to 64 nM.

B3 displayed a Kd of 21 nM.

Regarding B4, the Kd was 4.9 nM.

B5: the binding result was “no binding”.

Take B6: the binding result was “no binding”.

Take B7: the binding result is on record as “no binding”.

With B8, the binding result was “no binding”.

Regarding B9, the Kd was determined as 80 nM.

The molecule B10 returned an equilibrium dissociation constant (Kd) of 40.6 nM.

B11 gave a Kd of 83 nM.

In turn, B12 yielded a Kd of 8.6 nM.

For the molecule B13, the Kd turned out to be 29 nM.

In turn, B14 came in with a Kd of 32 nM.

B15 registered a dissociation constant Kd of 12 nM.
